Laboratory results reported in US20170114117A1 (OREGON HEALTH AND SCIENCE UNIVERSITY, published 2017).
Ends that are not written are not given here.

B1: mixture of synthetic peptides SEQ ID NO: 2 (α-helix 1) and SEQ ID NO: 4 (α-helix 2) (other)
peptide 1: TEDHVMHLLQNAD
peptide 2: KGSFPENLRHLKNTMET
modifications: also: mixture of two separate peptides, not covalently linked
notes: A mixture of two separate peptides that are not covalently linked; In the hMIF assay the starting concentration was 33 µM of each peptide, 66 µM in total; also called α-helix 1 plus α-helix 2; combined peptides
B2: CD74 α-helix 1 peptide (SEQ ID NO: 2) (peptide)
peptide: TEDHVMHLLQNAD
notes: also called human CD74 α-helix 1; alpha helix 1
B3: CD74 α-helix 2 peptide (SEQ ID NO: 4) (peptide)
peptide: KGSFPENLRHLKNTMET
notes: also called human CD74 α-helix 2; alpha helix 2

Key:
[1] = biological target: T1, human macrophage migration inhibitory factor (MIF) (human, UniProt P14174 2-115); assay: competition ELISA, hMIF coated, competitor against rmCD74
T1 construct: Coated onto ELISA plates at 0.5 µg/ml; also called hMIF; human MIF
Procedure: (§1) The ability of α-helix 1 and α-helix 2 peptides to compete with MIF for binding to CD74 was tested. […] Wells were thoroughly washed with PBS/T20 and the mAb PIN.1/anti-mIgG1-HRP (at 0.5 μg/ml in 5% BSA/PBS each) was used to detect the remaining rmCD74 bound to MIF. This mAb recognizes an epitope located at the N-terminus of the protein. Color was developed after adding 50 μl of TMB for 5 minutes and the reaction was stopped with 50 μl of 0.1N HCl. Data was first normalized and then analyzed using GraphPad Prism software. IC₅₀ were calculated by fitting the curve to a competition model involving a two-binding site equation.

DRα1-mMOG-35-55 [2] = biological target: T2, DRα1-mMOG-35-55; assay: competition ELISA (FIG. 4), competitor against rmCD74 on DRα1mMOG-35-55
T2 construct: Coated onto ELISA plates at 1 µg/ml; also called DRa1mMOG-35-55; DRα1-MOG-35-55

DRα1-mMOG-35-55 [3] = biological target: T2, DRα1-mMOG-35-55; assay: competition ELISA (FIG. 4, left panel), competitor against rmCD74 on DRα1-mMOG-35-55
[4] = biological target: T1, human macrophage migration inhibitory …; assay: competition ELISA, hMIF coated, competitor against rmCD74 (0.5 µg/ml), two-binding-site fit
Procedure: as §1

DRα1-mMOG-35-55 [5] = biological target: T2, DRα1-mMOG-35-55; assay: competition ELISA (FIG. 4, right panel), competitor against rmCD74 on DRα1-mMOG-35-55
RTL1000 = biological target: T3, RTL1000; assay: competition ELISA, RTL1000 coated, competitor against rmCD74 (50 nM), one-binding-site fit
T3 construct: Coated onto ELISA plates at 1 µg/ml; also called recombinant T cell receptor ligand
Procedure: (§2) Competition of peptides with rmCD74 for binding to RTL1000 or DRα1mMOG35-55 was also tested. Briefly, 50 μl of 1 μg/ml either RTL1000 or DRα1mMOG-35-55 were coated onto ELISA plates at 25° C. for 2 hours. […] Serial 1:2 dilutions of α-helix 1 or α-helix 2 (starting with a concentration of 66 μM, 50 μg/ml each) were prepared in rmCD74 (in BSA/PBS, 50 nM, 0.5 ug/ml) and added to the plate. Competition for the binding site was allowed for 3 hours at 25° C. and then unbound complexes were washed 4 times with PBS/T20. Remaining rmCD74 bound to RTL1000 or DRα1mMOG-35-55 was detected by the PIN.1/anti-mouse IgG1-HRP at 1 ul/ml of both in BSA/PBS for 1.5 hours at 25° C. and visualized by adding TMB substrate (50 μl, according to the manufacturer's instructions). Color development was stopped with 0.1N HCl and the plate was read at 450 nm in an ELISA plate reader. Data were normalized and fitted to a one-binding site model and competitor concentration was plotted against Absorbance at 450 nm to determine the IC₅₀ of each peptide competitor. All data were analyzed using Prism software (GraphPad).

DRα1-mMOG-35-55 [6] = biological target: T2, DRα1-mMOG-35-55; assay: competition ELISA, DRα1mMOG-35-55 coated, competitor against rmCD74 (50 nM), one-binding-site fit
Procedure: as §2

Binder | fold increase of the blocking effect against α-helix 1 alone [1] [fold] | IC50 (DRα1-mMOG-35-55 [2]) [µM] | IC50 (DRα1-mMOG-35-55 [3]) [µM] | IC50 [4] [µM] | IC50 (DRα1-mMOG-35-55 [5]) [µM] | IC50 (RTL1000) [µM] | LogIC50 (RTL1000) | IC50 (DRα1-mMOG-35-55 [6]) [µM] | LogIC50 (DRα1-mMOG-35-55 [6])
B1 | 10 | 4.75 | 4.71 | 3.74 | – | – | – | – | –
B2 | – | 35 | – | 41.8 | 35 | 6.78 | 0.831 | 10.1 | 1
B3 | – | – | – | 114 | 24.5 | 34.3 | 1.53 | 167 | 2.22
